Experimental data from US10766960 (dated 2020).
Like-named read-outs stand apart in the source and are kept apart here.

T1: FcgRIa (human, UniProt P12314)
T1 chain: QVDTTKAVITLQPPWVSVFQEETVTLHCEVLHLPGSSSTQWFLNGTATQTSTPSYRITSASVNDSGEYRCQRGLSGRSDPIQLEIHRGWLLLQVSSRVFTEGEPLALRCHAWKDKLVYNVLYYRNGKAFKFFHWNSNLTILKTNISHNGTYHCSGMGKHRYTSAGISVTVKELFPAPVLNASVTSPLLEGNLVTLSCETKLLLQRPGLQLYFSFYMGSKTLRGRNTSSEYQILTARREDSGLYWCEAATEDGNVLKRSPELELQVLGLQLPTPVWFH

T2: FcgRIIb (human, UniProt P31994)
T2 chain: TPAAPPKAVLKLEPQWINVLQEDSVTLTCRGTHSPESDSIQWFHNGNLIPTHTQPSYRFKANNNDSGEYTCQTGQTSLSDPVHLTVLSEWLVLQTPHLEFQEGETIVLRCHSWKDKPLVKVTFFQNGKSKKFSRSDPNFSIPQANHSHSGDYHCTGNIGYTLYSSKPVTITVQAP

T3: FcgRIIa H (human, UniProt P12318)
T3 chain: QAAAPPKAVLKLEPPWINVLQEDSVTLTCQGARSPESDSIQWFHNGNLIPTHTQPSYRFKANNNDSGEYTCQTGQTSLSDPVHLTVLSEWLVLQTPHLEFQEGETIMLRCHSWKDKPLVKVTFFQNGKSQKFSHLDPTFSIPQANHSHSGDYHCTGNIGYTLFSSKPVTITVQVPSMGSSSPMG

T4: FcgRIIa R (human, UniProt P12318)
T4 chain: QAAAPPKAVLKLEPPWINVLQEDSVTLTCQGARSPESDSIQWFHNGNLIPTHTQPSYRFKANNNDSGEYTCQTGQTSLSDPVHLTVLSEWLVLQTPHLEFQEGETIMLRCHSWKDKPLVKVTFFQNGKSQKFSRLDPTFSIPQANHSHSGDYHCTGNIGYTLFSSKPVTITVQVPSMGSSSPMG


Tests used:
Experiment in all cases: SPR
[1] = target: T5, FcgRIIIa V (human, UniProt P08637)
[2] = target: T6, FcgRIIIa F (human, UniProt P08637)
[3] = target: T1, FcgRIa
[4] = target: T2, FcgRIIb
[5] = target: T3, FcgRIIa H
[6] = target: T4, FcgRIIa R
[7] = target: T6, FcgRIIIa F; remark: listed apart in the source
[8] = target: T1, FcgRIa
[9] = target: T4, FcgRIIa R
[10] = target: T2, FcgRIIb
[11] = target: T3, FcgRIIa H
[12] = target: T5, FcgRIIIa V; remark: listed apart in the source

T6 sequence (P08637 17-208): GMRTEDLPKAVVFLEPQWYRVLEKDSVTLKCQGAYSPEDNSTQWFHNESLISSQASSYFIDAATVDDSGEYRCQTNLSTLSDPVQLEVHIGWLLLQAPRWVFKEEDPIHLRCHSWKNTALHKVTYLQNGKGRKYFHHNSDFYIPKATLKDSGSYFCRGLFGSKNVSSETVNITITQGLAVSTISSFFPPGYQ
T5 sequence (P08637 17-208 F176V): as the sequence (P08637 17-208) above, with F160V counted along it

Binder | Kd [1] | Kd [2] | Kd [3] | Kd [4] | Kd [5] | Kd [6] | Kd [7] | Kd [8] | Kd [9] | Kd [10] | Kd [11] | Kd [12]
H240-Kn210/H240-Hl076/L73-k0 (antibody) chain 1: QDQLVQSGAEVKKPGASVKVSCKASGFNIKDTYIQWVRQAPGQGLEWMGRIDPLRKQTKYREKFEGRVTITADTSTNTAYMELSSLRSEDTAVYYCVRSGREFDYWGQGTLVTVSSASTKGPSVFPLAPSSKSTSGGTAALGCLVKDYFPEPVTVSWNSGALTSGVHTFPAVLQSSGLYSLSSVVTVPSSSLGTQTYICNVNHKPSNTKVDKKVEPKSCDKTHTCPPCPAPEIQWGPMVFLFPPKPKDTLMISRTPEVTCVVVDVSDEEPEVKFNWYVDGVEVHNAKTKPREEQYNATYRVVSVLTVLHQDWLNGKEYKCKVSNKALPAPIEKTISKAKGQPREPQVCTLPPSRDELTKNQVSLWCLVKGFYPSDIAVEWESNGQPENNYKTTPPVLDSDGSFFLYSKLTVDKSRWQQGNVFSCSVMHEALHNHYTQKSLSLSP chain 2: QDQLVQSGAEVKKPGASVKVSCKASGFNIKDTYIQWVRQAPGQGLEWMGRIDPLRKQTKYREKFEGRVTITADTSTNTAYMELSSLRSEDTAVYYCVRSGREFDYWGQGTLVTVSSASTKGPSVFPLAPSSKSTSGGTAALGCLVKDYFPEPVTVSWNSGALTSGVHTFPAVLQSSGLYSLSSVVTVPSSSLGTQTYICNVNHKPSNTKVDKKVEPKSCDKTHTCPPCPAPELLGGPSVFLFPPKPKDTLMISRTPEVTCVVVDVSHEEPEVKFNWYVDGVEVHNAKTKPREEQYNSTYRVVSVLTVLHQDWLNGKEYKCKVSNDALPMPIEETISKAKGQPREPQVYTLPPSRCELTKNQVSLSCAVKGFYPSDIAVEWESNGQPENNYKTTPPVLDSDGSFFLVSKLTVDKSRWQQGNVFSCSVMHEALHNHYTQKSLSLSP chain 3: DIQMTQSPSSLSASVGDRVTITCRASQDIHKYIAWYQQKPGQAPRLLIQYTSTLQPGVPSRFSGSGSGTDYTFTISSLQPEDIATYYCLQYEQLRTFGGGTKVEIKRTVAAPSVFIFPPSDEQLKSGTASVVCLLNNFYPREAKVQWKVDNALQSGNSQESVTEQDSKDSTYSLSSTLTLSKADYEKHKVYACEVTHQGLSSPVTKSFNRGEC | 0.49 nM | 1.8 nM | 0.079 nM | 4.2 µM | 150 nM | 590 nM |  |  |  |  |  | 
H240-FA020/H240-FB084/L73-k0 (antibody) chain 1: QDQLVQSGAEVKKPGASVKVSCKASGFNIKDTYIQWVRQAPGQGLEWMGRIDPLRKQTKYREKFEGRVTITADTSTNTAYMELSSLRSEDTAVYYCVRSGREFDYWGQGTLVTVSSASTKGPSVFPLAPSSKSTSGGTAALGCLVKDYFPEPVTVSWNSGALTSGVHTFPAVLQSSGLYSLSSVVTVPSSSLGTKTYTCNVNHKPSNTKVDKKVEPKSCDKTHTCPPCPAPEYYWGPSVFLFPPKPKDTLMISRTPEVTCVVVDVSDEEPEVKFNWYVDGVEVHNAKTKPREEQYNATYRVVSVLTVLHQDWLNGKEYKCKVSNKALPAPIEKTISKAKGQPREPQVYTLPPSRKEKTKNQVSLTCLVKGFYPSDIAVEWESNGQPENNYKTTPPVLDSDGSFFLYSKLTVDKSRWQQGNVFSCSVMHEALHNRYTQKSLSLSP chain 2: QDQLVQSGAEVKKPGASVKVSCKASGFNIKDTYIQWVRQAPGQGLEWMGRIDPLRKQTKYREKFEGRVTITADTSTNTAYMELSSLRSEDTAVYYCVRSGREFDYWGQGTLVTVSSASTKGPSVFPLAPSSKSTSESTAALGCLVEDYFPEPVTVSWNSGALTSGVHTFPAVLQSSGLYSLSSVVTVPSSNFGTQTYTCNVDHKPSNTKVDKTVEPKSCDKTHTCPPCPAPELLGGPSVFLFPPKPKDTLMISRTPEVTCVVVDVSHEEPEVQFNWYVDGVEVHNAETKPREEQYNSTYRVVSVLTVLHQDWLNGKEYKCKVSNDALPMPIEETISKAKGQPREPQVYTLPPSREEMTKNQVSLTCLVKGFYPSDIAVEWESEGQPENNYKTTPPVLDSDGSFFLYSKLTVDKSRWQQGNVFSCSVMHEALHNHYTQESLSLSP chain 3: DIQMTQSPSSLSASVGDRVTITCRASQDIHKYIAWYQQKPGQAPRLLIQYTSTLQPGVPSRFSGSGSGTDYTFTISSLQPEDIATYYCLQYEQLRTFGGGTKVEIKRTVAAPSVFIFPPSDEQLKSGTASVVCLLNNFYPREAKVQWKVDNALQSGNSQESVTEQDSKDSTYSLSSTLTLSKADYEKHKVYACEVTHQGLSSPVTKSFNRGEC |  |  |  |  |  |  | 3.5 nM | 0.068 nM | 220 nM | 1400 nM | 57 nM | 1 nM
H240-FA009/H240-FB020/L73-k0 (antibody) chain 1: QDQLVQSGAEVKKPGASVKVSCKASGFNIKDTYIQWVRQAPGQGLEWMGRIDPLRKQTKYREKFEGRVTITADTSTNTAYMELSSLRSEDTAVYYCVRSGREFDYWGQGTLVTVSSASTKGPSVFPLAPSSKSTSGGTAALGCLVKDYFPEPVTVSWNSGALTSGVHTFPAVLQSSGLYSLSSVVTVPSSSLGTKTYICNVNHKPSNTKVDKKVEPKSCDKTHTCPPCPAPEYYWGPSVFLFPPKPKDTLMISRTPEVTCVVVDVSDEEPEVKFNWYVDGVEVHNAKTKPREEQYNATYRVVSVLTVLHQDWLNGKEYKCKVSNKALPAPIEKTISKAKGQPREPQVYTLPPSRKEMTKNQVSLTCLVKGFYPSDIAVEWESNGQPENNYKTTPPVLDSDGSFFLYSKLTVDKSRWQQGNVFSCSVMHEALHNRYTQKSLSLSP chain 2: QDQLVQSGAEVKKPGASVKVSCKASGFNIKDTYIQWVRQAPGQGLEWMGRIDPLRKQTKYREKFEGRVTITADTSTNTAYMELSSLRSEDTAVYYCVRSGREFDYWGQGTLVTVSSASTKGPSVFPLAPSSKSTSGGTAALGCLVEDYFPEPVTVSWNSGALTSGVHTFPAVLQSSGLYSLSSVVTVPSSSLGTQTYICNVNHKPSNTKVDKKVEPKSCDKTHTCPPCPAPELLGGPSVFLFPPKPKDTLMISRTPEVTCVVVDVSHEEPEVQFNWYVDGVEVHNAKTKPREEQYNSTYRVVSVLTVLHQDWLNGKEYKCKVSNDALPMPIEETISKAKGQPREPQVYTLPPSREEMTKNQVSLTCLVKGFYPSDIAVEWESNGQPENNYKTTPPVLDSDGSFFLYSKLTVDKSRWQQGNVFSCSVMHEALHNHYTQESLSLSP chain 3: DIQMTQSPSSLSASVGDRVTITCRASQDIHKYIAWYQQKPGQAPRLLIQYTSTLQPGVPSRFSGSGSGTDYTFTISSLQPEDIATYYCLQYEQLRTFGGGTKVEIKRTVAAPSVFIFPPSDEQLKSGTASVVCLLNNFYPREAKVQWKVDNALQSGNSQESVTEQDSKDSTYSLSSTLTLSKADYEKHKVYACEVTHQGLSSPVTKSFNRGEC |  |  |  |  |  |  | 3.9 nM | 0.12 nM | 250 nM | 1400 nM | 64 nM | 1.1 nM
H240-Kn212/H240-Hl076/L73-k0 (antibody) chain 1: QDQLVQSGAEVKKPGASVKVSCKASGFNIKDTYIQWVRQAPGQGLEWMGRIDPLRKQTKYREKFEGRVTITADTSTNTAYMELSSLRSEDTAVYYCVRSGREFDYWGQGTLVTVSSASTKGPSVFPLAPSSKSTSGGTAALGCLVKDYFPEPVTVSWNSGALTSGVHTFPAVLQSSGLYSLSSVVTVPSSSLGTQTYICNVNHKPSNTKVDKKVEPKSCDKTHTCPPCPAPETQWGPMVFLFPPKPKDTLMISRTPEVTCVVVDVSDEEPEVKFNWYVDGVEVHNAKTKPREEQYNATYRVVSVLTVLHQDWLNGKEYKCKVSNKALPAPIEKTISKAKGQPREPQVCTLPPSRDELTKNQVSLWCLVKGFYPSDIAVEWESNGQPENNYKTTPPVLDSDGSFFLYSKLTVDKSRWQQGNVFSCSVMHEALHNHYTQKSLSLSP chain 2: QDQLVQSGAEVKKPGASVKVSCKASGFNIKDTYIQWVRQAPGQGLEWMGRIDPLRKQTKYREKFEGRVTITADTSTNTAYMELSSLRSEDTAVYYCVRSGREFDYWGQGTLVTVSSASTKGPSVFPLAPSSKSTSGGTAALGCLVKDYFPEPVTVSWNSGALTSGVHTFPAVLQSSGLYSLSSVVTVPSSSLGTQTYICNVNHKPSNTKVDKKVEPKSCDKTHTCPPCPAPELLGGPSVFLFPPKPKDTLMISRTPEVTCVVVDVSHEEPEVKFNWYVDGVEVHNAKTKPREEQYNSTYRVVSVLTVLHQDWLNGKEYKCKVSNDALPMPIEETISKAKGQPREPQVYTLPPSRCELTKNQVSLSCAVKGFYPSDIAVEWESNGQPENNYKTTPPVLDSDGSFFLVSKLTVDKSRWQQGNVFSCSVMHEALHNHYTQKSLSLSP chain 3: DIQMTQSPSSLSASVGDRVTITCRASQDIHKYIAWYQQKPGQAPRLLIQYTSTLQPGVPSRFSGSGSGTDYTFTISSLQPEDIATYYCLQYEQLRTFGGGTKVEIKRTVAAPSVFIFPPSDEQLKSGTASVVCLLNNFYPREAKVQWKVDNALQSGNSQESVTEQDSKDSTYSLSSTLTLSKADYEKHKVYACEVTHQGLSSPVTKSFNRGEC | 0.58 nM | 2.1 nM | 0.094 nM | 5.2 µM | 230 nM | 640 nM |  |  |  |  |  | 
